For the assay, the target named is T1, human HGFR protein extracellular domain with the His tag (human, UniProt P08581 25-932).
T1 construct: also called HGFR-His
Put plainly: SPR Biacore T200, comparison of KD values.

T1 sequence (P08581 other isoform, or with tags, fused parts or gaps): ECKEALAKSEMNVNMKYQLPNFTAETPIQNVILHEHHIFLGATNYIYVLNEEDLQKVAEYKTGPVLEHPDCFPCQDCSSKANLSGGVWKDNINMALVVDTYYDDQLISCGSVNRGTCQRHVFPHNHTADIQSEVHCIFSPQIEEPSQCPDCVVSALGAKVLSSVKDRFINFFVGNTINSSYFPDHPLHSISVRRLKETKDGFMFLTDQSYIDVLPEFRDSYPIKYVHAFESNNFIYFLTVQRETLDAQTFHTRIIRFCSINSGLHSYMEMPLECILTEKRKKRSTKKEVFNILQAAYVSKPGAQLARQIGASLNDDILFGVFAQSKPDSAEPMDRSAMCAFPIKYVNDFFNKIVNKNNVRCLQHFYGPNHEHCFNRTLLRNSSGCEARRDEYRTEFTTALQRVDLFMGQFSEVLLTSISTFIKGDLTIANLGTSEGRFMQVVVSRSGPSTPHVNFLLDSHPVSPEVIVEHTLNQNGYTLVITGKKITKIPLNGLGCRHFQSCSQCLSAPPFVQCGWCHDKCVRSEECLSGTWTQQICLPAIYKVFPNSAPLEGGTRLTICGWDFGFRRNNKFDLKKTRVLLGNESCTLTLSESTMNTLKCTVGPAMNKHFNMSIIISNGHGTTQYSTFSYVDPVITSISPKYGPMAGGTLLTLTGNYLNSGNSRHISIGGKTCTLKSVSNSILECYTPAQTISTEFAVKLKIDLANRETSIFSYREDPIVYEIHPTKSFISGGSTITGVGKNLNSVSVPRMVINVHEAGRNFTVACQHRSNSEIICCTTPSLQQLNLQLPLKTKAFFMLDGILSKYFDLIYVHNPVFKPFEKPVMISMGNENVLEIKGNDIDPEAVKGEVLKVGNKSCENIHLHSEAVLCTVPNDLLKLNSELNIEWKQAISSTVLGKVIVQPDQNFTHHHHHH

B1: Ab10.1, mutant antibody of Ab10 (anti-HGFR) (antibody, V domains shown)
VH: QVQLVESGGGVVQPGRSLRLSCAASGFSLSDYGVHWVRQAPGKGLEWLAVIWSGGSTNYADAFVSRLTISKDNSKNTVYLQMNSLRAEDTAVYYCARNHDNPYIYAMDYWGQGTTVTVSS
VL: DIVLTQSPDSLAVSLGERATINCRADKSVSTSTYNYLHWYQQKPGQPPKLLIYRGSFLATGVPDRFSGSGSGTDFTLTISSLQAEDVAVYYCQHSRDLPPTFGQGTKLEIK
Turning to B1, the “fold affinity against the parent antibody Ab10” value was at least 4 fold.

The record behind these values is patent EP4624493A1 (Jiangsu Hengrui Pharmaceuticals Co., Ltd., dated 2025).
